Reference: paper PMC10335668 (2023)

B1: HCV E1 glycoprotein, H77 WT isolate [hepatitis C virus] / CD81 receptor [not stated] (parent complex)
chain 1: YQVRNSSGLYHVTNDCPNSSVVYEAADAILHTPGCVPCVREGNASRCWVAVTPTVATRDGKLPTTQLRRHIDLLVGSATLCSALYVGDLCGSVFLVGQLFTFSPRHHWTTQDCNCSIYPGHITGHRMAWNMMMNWSPTAALVVAQLLRIPQAIMDMIAGAHWGVLAGIKYFSMVGNWAKVLVVLLLFAGVDA
chain 2: MGVEGCTKCIKYLLFVFNFVFWLAGGVILGVALWLRHDPQTTNLLYLELGDKPAPNTFYVGIYILIAVGAVMMFVGFLGCYGAIQESQCLLGTFFTCLVILFACEVAAGIWGFVNKDQIAKDVKQFYDQALQQAVVDDDANNAKAVVKTFHETLDCCGSSTLTALTTSVLKNNLCPSGSNIISNLFKEDCHQKIDDLFSGKLYLIGIAAIVVAVIMIFEMILSMVLCCGIRNSSVY

Variants of: B1
Assay: CD81 receptor binding (method in S1 Text, not given); parent: 1; read off a plot

**Q.** Which ratio to parent does the source give for chain 1 YQVCNSSGLYHVTNDCPNSSVVYEAADAILHTPGCVPCVREGNASRCWVAVTPTVATRDGKLPTTQLRRHIDLLVGSATLCSALYVGDLCGSVFLVGQLFTFSPRHHWTTCDCNCSIYPGHITGHRMAWNMMMNWSPTAALVVAQLLRIPQAIMDMIAGAHWGVLAGIKYFSMVGNWAKVLVVLLLFAGVDA [chain 1 R4C, chain 1 Q111C] here?
**A.** ~0.6

**Q.** For chain 1 YQVRNSSGLYHVTNDCPNSSVVYEAADAILHTPGCVPAVREGNASRCWVAVTPTVATRDGKLPTTQLRRHIDLLVGSATLCSALYVGDLCGSVFLVGQLFTFSPRHHWTTQDANCSIYPGHITGHRMAWNMMMNWSPTAALVVAQLLRIPQAIMDMIAGAHWGVLAGIKYFSMVGNWAKVLVVLLLFAGVDA [chain 1 C38A, chain 1 C113A], which ratio to parent is on record?
**A.** ~0.85

**Q.** Which ratio to parent does the source give for chain 1 YQVRNSSGLYHVTNDAPNSSVVYEAADAILHTPGAVPCVREGNASRCWVAVTPTVATRDGKLPTTQLRRHIDLLVGSATLCSALYVGDLCGSVFLVGQLFTFSPRHHWTTQDCNCSIYPGHITGHRMAWNMMMNWSPTAALVVAQLLRIPQAIMDMIAGAHWGVLAGIKYFSMVGNWAKVLVVLLLFAGVDA [chain 1 C16A, chain 1 C35A] here?
**A.** ~0.8

**Q.** How did the ratio to parent turn out when chain 1 YQVRNSSGLYHVTNDCPNSSVVYEAADAILHTPGCVPCVREGNASRAWVAVTPTVATRDGKLPTTQLRRHIDLLVGSATLCSALYVGDLCGSVFLVGQLFTFSPRHHWTTQDCNASIYPGHITGHRMAWNMMMNWSPTAALVVAQLLRIPQAIMDMIAGAHWGVLAGIKYFSMVGNWAKVLVVLLLFAGVDA [chain 1 C47A, chain 1 C115A] was run?
**A.** ~0.85

**Q.** For chain 1 YQVRNSSGLYHVTNDCPNSSVVYEAADAILHTPGCVPCVREGNASRCWVAVTPTVATRDGKLPTTQLRRHIDLLVGSATLASALYVGDLAGSVFLVGQLFTFSPRHHWTTQDCNCSIYPGHITGHRMAWNMMMNWSPTAALVVAQLLRIPQAIMDMIAGAHWGVLAGIKYFSMVGNWAKVLVVLLLFAGVDA [chain 1 C81A, chain 1 C90A], which ratio to parent is on record?
**A.** ~1.1

**Q.** chain 1 YQVRNSSGLYHVTNDCPNSSVVYCAADACLHTPGCVPCVREGNASRCWVAVTPTVATRDGKLPTTQLRRHIDLLVGSATLCSALYVGDLCGSVFLVGQLFTFSPRHHWTTQDCNCSIYPGHITGHRMAWNMMMNWSPTAALVVAQLLRIPQAIMDMIAGAHWGVLAGIKYFSMVGNWAKVLVVLLLFAGVDA [chain 1 E24C, chain 1 I29C] was tested. Which ratio to parent did it give?
**A.** ~0.65
